Target: IgG (immobilised on resin in a column)
Experiment: IgG-functionalised resin column, about 15 min reaction, buffer wash; effluent monitored for nanoparticle luminescence

percent of ionic bioconjugates retained by the column: 95 to 98%
Substance: protein G-zipper fusion protein (IgG binding b2 sub-domain of streptococcal protein G, linker, basic leucine zipper tail, hexahistidine), electrostatically attached to CdSe-ZnS dihydrolipoic acid nanoparticles (from UniProt P19909 373-427)

Reference: patent publication US6921496
